These results are taken from patent publication US20250163161A1 (TECHNISCHE UNIVERSIT T DARMSTADT, published 2025).

Like-named read-outs stand apart in the source and are kept apart here.

For experiment [1], the target named is T1, EGFR and PD-L1 on EGFR/PD-L1 double positive A431 cells (UniProt P00533 25-1210; Q9NZQ7 19-290).
T1 construct: whole, on cells; Two separate cell-surface proteins, not a complex; also called A431 (EGFR+/PD-L1+)
As to the kind of experiment: flow cytometry on A431 cells. On the technique in general: A flow cytometer gives signals particle by particle.
Protocol: Flow cytometric analysis was performed by first washing the cells of interest with ice-cold PBS-2% FBS (PBS-F). Cells were then stained with primary antibodies and incubated on ice for 30 min. Subsequently, the cell pellets were washed with ice-cold PBS-F and resuspended in an appropriate volume of PBS-F for measurement using a CytoFlex S (Beckman Coulter) flow cytometer. If the primary antibody was not directly conjugated, a secondary antibody incubation was performed on ice for 15 min before measurement. The antibodies used in this study were: anti-human Fc-PE (Thermo Fisher Scientific), anti-human CD69-FITC (Thermo Fisher Scientific), anti-human CD25-APC (Thermo Fisher Scientific). Dot plots were generated using FlowJo V10 software.

For experiment [2], the target named is T1, EGFR and PD-L1 on EGFR/PD-L1 double …. As to the kind of experiment: flow cytometry; Jurkat cells with antibody mixed with Calcein AM-stained A431 cells; anti-human Fc PE detection; Q2 = PE-positive Calcein-stained A431 events; Neg Ctrl Q2 0.13.
Experiment [3] deals with T2, soluble IL-6R (sIL-6R-TS) (UniProt P08887 20-358).
T2 construct: not shown: TwinStrepII tag (TS)
T2 sequence (looked up): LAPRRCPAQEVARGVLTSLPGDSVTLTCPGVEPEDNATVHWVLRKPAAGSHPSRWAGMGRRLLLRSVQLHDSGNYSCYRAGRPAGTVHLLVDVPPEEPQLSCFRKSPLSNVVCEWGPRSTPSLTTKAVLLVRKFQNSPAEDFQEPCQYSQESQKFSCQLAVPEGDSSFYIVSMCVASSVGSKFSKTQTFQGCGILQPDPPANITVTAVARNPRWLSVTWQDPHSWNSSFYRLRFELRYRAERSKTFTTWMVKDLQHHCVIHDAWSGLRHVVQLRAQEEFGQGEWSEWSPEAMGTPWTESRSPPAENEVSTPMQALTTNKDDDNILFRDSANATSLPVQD
Nature of the experiment: BLI, antibody on AHC biosensors.

For experiment [4], the target named is T3, His6-EGFR-TS (soluble, monomeric EGFR) (UniProt P00533 25-645).
T3 construct: not shown: TwinStrepII tag (TS)
As to the kind of experiment: BLI, antibody on AHC biosensors. Background: In BLI a coated tip is dipped into the sample, and binding shifts an interference pattern.

Experiment [5] addresses T4, programmed death-ligand 1 (PD-L1), soluble, as used in BLI (UniProt Q9NZQ7 19-238).
T4 construct: extracellular domain; also called PD-L1-ECD
Nature of the experiment: BLI.

Experiment [6] concerns the target T5, CD16 (UniProt P08637 17-208).
T5 construct: also called Fcγ-receptor IIIa
As to the kind of experiment: BLI.

Experiment [7] deals with T6, epidermal growth factor receptor (EGFR), soluble, as used in BLI (UniProt P00533 25-645).
T6 construct: extracellular domain; also called EGFR-ECD
As to the kind of experiment: BLI.

Experiment [8] deals with T4, programmed death-ligand 1 (PD-L1), …. As to the kind of experiment: BLI. The source holds these as a separate data set.
The target of experiment [9] is T5, CD16. Nature of the experiment: BLI. This is another data set of the same source.
Experiment [10] has as its target T6, epidermal growth factor receptor …. Nature of the experiment: BLI. This is another data set of the same source.

T5 sequence (P08637 17-208): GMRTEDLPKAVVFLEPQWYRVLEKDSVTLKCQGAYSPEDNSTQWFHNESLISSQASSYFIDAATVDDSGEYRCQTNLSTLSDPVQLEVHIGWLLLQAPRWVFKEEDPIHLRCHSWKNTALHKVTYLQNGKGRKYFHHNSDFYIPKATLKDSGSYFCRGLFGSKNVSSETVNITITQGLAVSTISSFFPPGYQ
T4 sequence (Q9NZQ7 19-238): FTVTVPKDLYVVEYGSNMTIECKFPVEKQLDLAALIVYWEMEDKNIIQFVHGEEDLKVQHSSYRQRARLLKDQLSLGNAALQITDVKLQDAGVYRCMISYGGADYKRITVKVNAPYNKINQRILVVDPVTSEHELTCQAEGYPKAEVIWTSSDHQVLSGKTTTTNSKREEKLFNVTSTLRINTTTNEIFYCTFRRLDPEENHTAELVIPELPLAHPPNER

B1: K(αCD3ε)+H(αIL-6R) TriTECM (bispecific antibody)
heavy 1: not shown
heavy 2: AVTLDESGGGLQTPGGALSLVCKASGFDFSSYDMAWVRQAPGKGLEWVAGIKSNGPWTNYGAAVKGRATISRDNGQSTVRLQLNNLRAEDTAIYYCAKPGAGYVGWDAAGTIDSWGHGTEVIVSSASTKGPSVFPLAPSSKSTSGGTAALGCLVKDYFPEPVTVSWNSGALTSGVHTFPAVLQSSGLYSLSSVVTVPSSSLGTQTYICNVNHKPSNTKVDKRVEPKSCDKTHTCPPCPAPEAAGGPSVFLFPPKPKDTLMISRTPEVTCVVVDVSHEDPEVKFNWYVDGVEVHNAKTKPREEQYNSTYRVVSVLTVLHQDWLNGKEYKCKVSNKALPAPIEKTISKAKGQPREPQVYTLPPSREEMTKNQVSLSCAVKGFYPSDIAVEWESNGQPENNYKTTPPVLDSDGSFFLVSKLTVDKSRWQQGNVFSCSVMHEALHNRFTQKSLSLSPGGSHHHHHHGGGGSGGGGSGGGGSSEVQLVESGGGLVQPGRSLRLSCAASRFTFDDYAMHWVRQAPGKGLEWVSGISWNSGRIGYADSVKGRFTISRDNAENSLFLQMNGLRAEDTALYYCAKGRDSFDIWGQGTMVTVSSAGGGGSGGGGSGGGGSSDIQMTQSPSSVSASVGDRVTITCRASQGISSWLAWYQQKPGKAPKLLIYGASSLESGVPSRFSGSGSGTDFTLTISSLQPEDFASYYCQQANSFPYTFGQGTKLEIKR
light: ALTQPSSVSANLGETVKITCSGGAYSDCGWYQQKSPGSAPVTVIYYNDKRPSDIPSRFSGSTFGSTATLTITGVQAEDEAVYYCGGYDSRTGYVGVFGAGTTLTVLGQPKANPTVTLFPPSSEELQANKATLVCLISDFYPGAVTVAWKADGSPVKAGVETTKPSKQSNNKYAASSYLSLTPEQWKSHRSYSCQVTHEGSTVEKTVAPTECS
notes: Fabs from HCP-LCE; effector-silenced IgG1 LALA; also called IgG1(H)-scFv2
As for B1, the On-cell affinity in [1] came out at 21.2 nM. Moreover, in experiment [2], the “Q2 (FITC+/PE+) % of events” value is 12.2%. The Kd (in general, the free concentration of one partner at which half of the binding sites on the other are occupied at equilibrium, for simple one-to-one binding) stood at 0.0018 µM in [3] and 0.172 µM in experiment [4].

B2: Knob-into-Hole (KiH) trispecific variant V1: HCP-LCE on one side and heavy chain of CD16 binder NKE14, paired with the HCP-LCE light chain (bispecific antibody, human IgG1, lambda, L234A L235A)
heavy 1: AVTLDESGGGLQTPGGALSLVCKASGFDFSSYDMAWVRQAPGKGLEWVAGIKSNGPWTNYGAAVKGRATISRDNGQSTVRLQLNNLRAEDTAIYYCAKPGAGYVGWDAAGTIDSWGHGTEVIVSSASTKGPSVFPLAPSSKSTSGGTAALGCLVKDYFPEPVTVSWNSGALTSGVHTFPAVLQSSGLYSLSSVVTVPSSSLGTQTYICNVNHKPSNTKVDKRVEPKSCDKTHTCPPCPAPEAAGGPSVFLFPPKPKDTLMISRTPEVTCVVVDVSHEDPEVKFNWYVDGVEVHNAKTKPREEQYNSTYRVVSVLTVLHQDWLNGKEYKCKVSNKALPAPIEKTISKAKGQPREPQVYTLPPSREEMTKNQVSLWCLVKGFYPSDIAVEWESNGQPENNYKTTPPVLDSDGSFFLYSKLTVDKSRWQQGNVFSCSVMHEALHNHYTQKSLSLSPG
heavy 2: AVTLDESGGGLQTPGGGLSLVCKGSGFTFSSYNMGWVRQAPGKGLEFVASIDDDGSFTHYGAAVKGRATISRDNGQSTVRLQLNNLRVEDSGIYYCAKSSINGYRCSGGLCVPYITGNIDAWGHGTEVIVSSASTKGPSVFPLAPSSKSTSGGTAALGCLVKDYFPEPVTVSWNSGALTSGVHTFPAVLQSSGLYSLSSVVTVPSSSLGTQTYICNVNHKPSNTKVDKRVEPKSCDKTHTCPPCPAPEAAGGPSVFLFPPKPKDTLMISRTPEVTCVVVDVSHEDPEVKFNWYVDGVEVHNAKTKPREEQYNSTYRVVSVLTVLHQDWLNGKEYKCKVSNKALPAPIEKTISKAKGQPREPQVYTLPPSREEMTKNQVSLSCAVKGFYPSDIAVEWESNGQPENNYKTTPPVLDSDGSFFLVSKLTVDKSRWQQGNVFSCSVMHEALHNRFTQKSLSLSPG
light: B1 light
notes: Trispecific (EGFR, PD-L1, CD16)
B2: the Kd turned out to be 0.104 µM in experiment [5], 0.277 µM with CD16 [6] and 0.57 µM in [7].

B3: NKE14_outer and ICI2_inner trispecific variant V4 (bispecific antibody, human IgG1, lambda, L234A L235A)
heavy: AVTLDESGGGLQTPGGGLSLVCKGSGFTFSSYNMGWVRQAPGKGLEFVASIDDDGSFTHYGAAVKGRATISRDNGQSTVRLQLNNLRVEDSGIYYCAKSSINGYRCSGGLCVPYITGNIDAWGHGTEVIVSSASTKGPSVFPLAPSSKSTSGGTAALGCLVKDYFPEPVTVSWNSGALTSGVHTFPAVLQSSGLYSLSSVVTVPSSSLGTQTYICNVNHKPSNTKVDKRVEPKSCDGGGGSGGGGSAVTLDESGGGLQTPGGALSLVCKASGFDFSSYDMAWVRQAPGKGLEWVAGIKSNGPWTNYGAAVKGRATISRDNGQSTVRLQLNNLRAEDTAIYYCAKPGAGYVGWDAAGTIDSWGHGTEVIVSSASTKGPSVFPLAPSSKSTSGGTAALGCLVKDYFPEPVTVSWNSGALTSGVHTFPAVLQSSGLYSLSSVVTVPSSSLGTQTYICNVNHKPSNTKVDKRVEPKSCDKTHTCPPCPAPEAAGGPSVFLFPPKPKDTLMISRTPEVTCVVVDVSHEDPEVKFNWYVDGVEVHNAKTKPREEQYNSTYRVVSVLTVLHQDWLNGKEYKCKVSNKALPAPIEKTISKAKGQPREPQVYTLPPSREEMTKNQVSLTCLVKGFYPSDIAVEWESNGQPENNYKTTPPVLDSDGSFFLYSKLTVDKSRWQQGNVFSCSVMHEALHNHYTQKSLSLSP
light: B1 light
notes: Two Fabs on each side, common light chain LCE; also called NKE14_outer Fab
With B3, the Kd was 0.125 µM in experiment [5], 0.302 µM with CD16 [6] and 0.603 µM in [7].

B4: HC16_outer/ICI2_inner trispecific variant (full-length HC16_outer and ICI2_inner LALA construct) (bispecific antibody, human IgG1, lambda, L234A L235A)
heavy: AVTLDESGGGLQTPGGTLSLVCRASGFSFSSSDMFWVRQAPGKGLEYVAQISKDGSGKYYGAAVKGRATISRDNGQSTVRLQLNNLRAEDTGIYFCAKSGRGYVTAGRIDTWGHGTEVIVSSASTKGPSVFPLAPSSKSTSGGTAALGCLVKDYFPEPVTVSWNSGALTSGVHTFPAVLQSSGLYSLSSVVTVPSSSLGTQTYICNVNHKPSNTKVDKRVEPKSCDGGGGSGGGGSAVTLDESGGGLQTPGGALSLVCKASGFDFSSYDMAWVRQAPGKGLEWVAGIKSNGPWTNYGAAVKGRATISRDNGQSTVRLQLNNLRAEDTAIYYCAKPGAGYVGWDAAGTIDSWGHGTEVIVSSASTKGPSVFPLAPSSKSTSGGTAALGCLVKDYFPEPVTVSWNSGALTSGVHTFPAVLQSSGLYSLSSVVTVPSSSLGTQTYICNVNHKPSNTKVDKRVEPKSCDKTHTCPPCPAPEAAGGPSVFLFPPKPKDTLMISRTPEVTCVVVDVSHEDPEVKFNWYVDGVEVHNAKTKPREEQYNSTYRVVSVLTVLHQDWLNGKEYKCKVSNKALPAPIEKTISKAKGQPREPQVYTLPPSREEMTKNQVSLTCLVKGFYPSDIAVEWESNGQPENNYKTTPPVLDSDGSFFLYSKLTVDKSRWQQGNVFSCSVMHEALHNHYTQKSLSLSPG
light: B1 light
notes: Two Fabs on each side, common light chain LCE; also called HC16_outer/ICI2_inner LALA
On to B4, for which the dissociation constant (Kd) came out at 0.068 µM in experiment [8], 0.017 µM in the experiment with CD16 [9] and 0.331 µM in experiment [10].

B5: one-armed NKE14_outer and ICI2_inner variant V5 (bispecific antibody, human IgG1, lambda, L234A L235A)
heavy 1: AVTLDESGGGLQTPGGGLSLVCKGSGFTFSSYNMGWVRQAPGKGLEFVASIDDDGSFTHYGAAVKGRATISRDNGQSTVRLQLNNLRVEDSGIYYCAKSSINGYRCSGGLCVPYITGNIDAWGHGTEVIVSSASTKGPSVFPLAPSSKSTSGGTAALGCLVKDYFPEPVTVSWNSGALTSGVHTFPAVLQSSGLYSLSSVVTVPSSSLGTQTYICNVNHKPSNTKVDKRVEPKSCDGGGGSGGGGSAVTLDESGGGLQTPGGALSLVCKASGFDFSSYDMAWVRQAPGKGLEWVAGIKSNGPWTNYGAAVKGRATISRDNGQSTVRLQLNNLRAEDTAIYYCAKPGAGYVGWDAAGTIDSWGHGTEVIVSSASTKGPSVFPLAPSSKSTSGGTAALGCLVKDYFPEPVTVSWNSGALTSGVHTFPAVLQSSGLYSLSSVVTVPSSSLGTQTYICNVNHKPSNTKVDKRVEPKSCDKTHTCPPCPAPEAAGGPSVFLFPPKPKDTLMISRTPEVTCVVVDVSHEDPEVKFNWYVDGVEVHNAKTKPREEQYNSTYRVVSVLTVLHQDWLNGKEYKCKVSNKALPAPIEKTISKAKGQPREPQVYTLPPSREEMTKNQVSLWCLVKGFYPSDIAVEWESNGQPENNYKTTPPVLDSDGSFFLYSKLTVDKSRWQQGNVFSCSVMHEALHNHYTQKSLSLSPG
heavy 2: EPKSCDKTHTCPPCPAPEAAGGPSVFLFPPKPKDTLMISRTPEVTCVVVDVSHEDPEVKFNWYVDGVEVHNAKTKPREEQYNSTYRVVSVLTVLHQDWLNGKEYKCKVSNKALPAPIEKTISKAKGQPREPQVYTLPPSREEMTKNQVSLSCAVKGFYPSDIAVEWESNGQPENNYKTTPPVLDSDGSFFLVSKLTVDKSRWQQGNVFSCSVMHEALHNRFTQKSLSLSPG
light: B1 light
notes: also called oaNKE14_outer
As for B5, the Kd in [5] turned out to be 0.137 µM; in the experiment with CD16 [6] it was 0.342 µM; in experiment [7], 0.982 µM.

B6: ICI2_outer and NKE14_inner trispecific variant V2 (bispecific antibody, human IgG1, lambda, L234A L235A)
heavy: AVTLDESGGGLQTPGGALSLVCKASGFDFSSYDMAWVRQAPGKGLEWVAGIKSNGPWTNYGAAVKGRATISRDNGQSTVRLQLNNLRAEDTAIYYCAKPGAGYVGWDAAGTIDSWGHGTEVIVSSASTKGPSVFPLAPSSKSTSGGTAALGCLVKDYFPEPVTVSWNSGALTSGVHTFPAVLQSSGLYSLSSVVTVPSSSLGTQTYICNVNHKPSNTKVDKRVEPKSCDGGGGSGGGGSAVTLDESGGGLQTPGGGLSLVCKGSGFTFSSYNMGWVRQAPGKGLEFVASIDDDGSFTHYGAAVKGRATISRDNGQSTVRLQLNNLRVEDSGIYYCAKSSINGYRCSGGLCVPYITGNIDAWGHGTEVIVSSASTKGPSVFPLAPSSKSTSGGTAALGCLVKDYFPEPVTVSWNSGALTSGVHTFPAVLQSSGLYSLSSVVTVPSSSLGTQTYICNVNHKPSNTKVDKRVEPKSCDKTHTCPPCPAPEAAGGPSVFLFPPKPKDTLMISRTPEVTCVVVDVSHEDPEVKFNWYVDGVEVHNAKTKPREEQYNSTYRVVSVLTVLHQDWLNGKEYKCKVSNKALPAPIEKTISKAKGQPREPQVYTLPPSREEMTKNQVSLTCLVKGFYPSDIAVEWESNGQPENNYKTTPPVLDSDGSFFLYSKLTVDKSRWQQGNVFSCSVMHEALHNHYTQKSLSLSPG
light: B1 light
notes: Two Fabs on each side, common light chain LCE; also called ICI2_outer Fab
In the case of B6, the values for the Kd (in experiment [5]; with CD16 [6]; in experiment [7]) were 0.0976 µM, 0.382 µM and 0.46 µM, respectively.

B7: one-armed ICI2_outer and NKE14_inner variant V3 (bispecific antibody, human IgG1, lambda, L234A L235A)
heavy 1: AVTLDESGGGLQTPGGALSLVCKASGFDFSSYDMAWVRQAPGKGLEWVAGIKSNGPWTNYGAAVKGRATISRDNGQSTVRLQLNNLRAEDTAIYYCAKPGAGYVGWDAAGTIDSWGHGTEVIVSSASTKGPSVFPLAPSSKSTSGGTAALGCLVKDYFPEPVTVSWNSGALTSGVHTFPAVLQSSGLYSLSSVVTVPSSSLGTQTYICNVNHKPSNTKVDKRVEPKSCDGGGGSGGGGSAVTLDESGGGLQTPGGGLSLVCKGSGFTFSSYNMGWVRQAPGKGLEFVASIDDDGSFTHYGAAVKGRATISRDNGQSTVRLQLNNLRVEDSGIYYCAKSSINGYRCSGGLCVPYITGNIDAWGHGTEVIVSSASTKGPSVFPLAPSSKSTSGGTAALGCLVKDYFPEPVTVSWNSGALTSGVHTFPAVLQSSGLYSLSSVVTVPSSSLGTQTYICNVNHKPSNTKVDKRVEPKSCDKTHTCPPCPAPEAAGGPSVFLFPPKPKDTLMISRTPEVTCVVVDVSHEDPEVKFNWYVDGVEVHNAKTKPREEQYNSTYRVVSVLTVLHQDWLNGKEYKCKVSNKALPAPIEKTISKAKGQPREPQVYTLPPSREEMTKNQVSLWCLVKGFYPSDIAVEWESNGQPENNYKTTPPVLDSDGSFFLYSKLTVDKSRWQQGNVFSCSVMHEALHNHYTQKSLSLSPG
heavy 2: B5 heavy 2
light: B1 light
notes: also called oaICI2_outer
As to B7, the Kd amounted to 0.115 µM in [5], 0.346 µM with CD16 [6] and 0.763 µM in [7].

B8: NKE14 + LCE comparative mAb (CD16-binding antibody NKE14 heavy chain with LCE light chain) (antibody)
VH: AVTLDESGGGLQTPGGGLSLVCKGSGFTFSSYNMGWVRQAPGKGLEFVASIDDDGSFTHYGAAVKGRATISRDNGQSTVRLQLNNLRVEDSGIYYCAKSSINGYRCSGGLCVPYITGNIDAWGHGTEVIVSS
light: B1 light
notes: LCE is the HCP-LCE light chain
Take B8: the Kd with CD16 [6] was 0.151 µM.

B9: HC16/ICI2 KiH variant: HCP-LCE on one side and CD16 binder HC16 on the other, paired with the HCP-LCE light chain (bispecific antibody)
VH 1: AVTLDESGGGLQTPGGALSLVCKASGFDFSSYDMAWVRQAPGKGLEWVAGIKSNGPWTNYGAAVKGRATISRDNGQSTVRLQLNNLRAEDTAIYYCAKPGAGYVGWDAAGTIDSWGHGTEVIVSS
VH 2: AVTLDESGGGLQTPGGTLSLVCRASGFSFSSSDMFWVRQAPGKGLEYVAQISKDGSGKYYGAAVKGRATISRDNGQSTVRLQLNNLRAEDTGIYFCAKSGRGYVTAGRIDTWGHGTEVIVSS
light: B1 light
Take B9: the Kd in [8] was determined as 0.0577 µM; with CD16 [9], 0.0219 µM; in experiment [10] it was 0.32 µM.
